B1: S. japonicus Tup11 WD40 domain (amino acids 301–630), wild type [S. japonicus] / C-terminal region of S. pombe Fep1 (amino acids 319–564) [S. pombe] (parent complex)
chain 1: ERTKESGQDWYAVYNEKMPKRMSIGLVHTLEHKSVVCCVRFSADGKYLATGCNRAAEIFDVQTGQKLATFEQENTNPETDLYIRSVAFSPDGKYLVTGAEDRQIRMWDIATGKVKHVFVGHEQDIYSLDYSRDGRYIVSGSGDHTARLWEAETGKCVLTLAIENGVTAVAFSPNNQFIAAGSLDQVIRVWSITGTLLKKLEGHRESVYSIAFSADGKYLASGSLDKTMRLWELKLDENAKTCSKASAISTYTGHSNFVLSVAISPNGKWAVSGSKDRSVQFWNLKTDELYLTFQGHKNSVISVCFSPDGKLFATGSGDLRARIWSIEDTA
chain 2: AAGEPDNNGKVYYSYGPTQEQSILPLPENKHEGLPPYQNEYVPNGIRANQVVYPGQLVAVGNDSSKQLSESTTSNTDNNGVATANQSNPLGMKFHLPPILPVGESVCLPPRTSAKPRIAEGIASLLNPEEPPSNSDKQPSMSNGPKSEVSPSQSQQAPLIQSSTSPVSLQFPPEVQGSNVDKRNYALNVLSQLRSQHDLMIQELHNLNQHIQQIDEWLRSSDNENMASEHIKSSTPAVVASGALQT

In the assay the parent is B1. Briefly: ITC; parent: -6.6; read off a plot.
For the variant chain 1 ERTKESGQDWYAVYNEKMPKRMSIGLVHTLEHKSVVACVRFSADGKYLATGCNRAAEIFDVQTGQKLATFEQENTNPETDLYIRSVAFSPDGKYLVTGAEDRQIRMWDIATGKVKHVFVGHEQDIYSLDYSRDGRYIVSGSGDHTARLWEAETGKCVLTLAIENGVTAVAFSPNNQFIAAGSLDQVIRVWSITGTLLKKLEGHRESVYSIAFSADGKYLASGSLDKTMRLWELKLDENAKTCSKASAISTYTGHSNFVLSVAISPNGKWAVSGSKDRSVQFWNLKTDELYLTFQGHKNSVISVCFSPDGKLFATGSGDLRARIWSIEDTA [chain 1 C37A], the dG was approximately -6.2 kcal/mol.

For chain 1 ERTKESGQDWYAVYNEKMPKRMSIGLVHTLEHKSVVCCVRFSADGKYLATGCNRAAEIFDVQTGQKLATFEQENTNPETDLYIASVAFSPDGKYLVTGAEDRQIRMWDIATGKVKHVFVGHEQDIYSLDYSRDGRYIVSGSGDHTARLWEAETGKCVLTLAIENGVTAVAFSPNNQFIAAGSLDQVIRVWSITGTLLKKLEGHRESVYSIAFSADGKYLASGSLDKTMRLWELKLDENAKTCSKASAISTYTGHSNFVLSVAISPNGKWAVSGSKDRSVQFWNLKTDELYLTFQGHKNSVISVCFSPDGKLFATGSGDLRARIWSIEDTA [chain 1 R84A], the dG was approximately -5.4 kcal/mol.

As for chain 1 ERTKESGQDWYAVYNEKMPKRMSIGLVHTLEHKSVVCCVRFSADGKYLATGCNRAAEIFDVQTGQKLATFEQENTNPETDLYIRSVAFSPDGKYLVTGAADRQIRMWDIATGKVKHVFVGHEQDIYSLDYSRDGRYIVSGSGDHTARLWEAETGKCVLTLAIENGVTAVAFSPNNQFIAAGSLDQVIRVWSITGTLLKKLEGHRESVYSIAFSADGKYLASGSLDKTMRLWELKLDENAKTCSKASAISTYTGHSNFVLSVAISPNGKWAVSGSKDRSVQFWNLKTDELYLTFQGHKNSVISVCFSPDGKLFATGSGDLRARIWSIEDTA [chain 1 E100A], the dG was approximately -6.2 kcal/mol.

In the case of chain 1 ERTKESGQDWYAVYNEKMPKRMSIGLVHTLEHKSVVCCVRFSADGKYLATGCNRAAEIFDVQTGQKLATFEQENTNPETDLYIRSVAFSPDGKYLVTGAEDRQIRMWDIATGKVKHVFVGHEQDIASLDYSRDGRYIVSGSGDHTARLWEAETGKCVLTLAIENGVTAVAFSPNNQFIAAGSLDQVIRVWSITGTLLKKLEGHRESVYSIAFSADGKYLASGSLDKTMRLWELKLDENAKTCSKASAISTYTGHSNFVLSVAISPNGKWAVSGSKDRSVQFWNLKTDELYLTFQGHKNSVISVCFSPDGKLFATGSGDLRARIWSIEDTA [chain 1 Y126A], the dG was approximately -5.6 kcal/mol.

Consider chain 1 ERTKESGQDWYAVYNEKMPKRMSIGLVHTLEHKSVVCCVRFSADGKYLATGCNRAAEIFDVQTGQKLATFEQENTNPETDLYIRSVAFSPDGKYLVTGAEDRQIRMWDIATGKVKHVFVGHEQAIYSLDYSRDGRYIVSGSGDHTARLWEAETGKCVLTLAIENGVTAVAFSPNNQFIAAGSLDQVIRVWSITGTLLKKLEGHRESVYSIAFSADGKYLASGSLDKTMRLWELKLDENAKTCSKASAISTYTGHSNFVLSVAISPNGKWAVSGSKDRSVQFWNLKTDELYLTFQGHKNSVISVCFSPDGKLFATGSGDLRARIWSIEDTA [chain 1 D124A], for which the dG was approximately -6.9 kcal/mol.

As for chain 1 ERTKESGQDWYAVYNEKMPKRMSIGLVHTLEHKSVVCCVRFSADGKYLATGCNRAAEIFDVQTGQKLATFEQENTNPETDLYIRSVAFSPDGKYLVTGAEDRQIRMWDIATGKVKHVFVGHEQDIYSLDYSRDGRYIVSGSGDHTARLWEAETGKCVLTLAIENGVAAVAFSPNNQFIAAGSLDQVIRVWSITGTLLKKLEGHRESVYSIAFSADGKYLASGSLDKTMRLWELKLDENAKTCSKASAISTYTGHSNFVLSVAISPNGKWAVSGSKDRSVQFWNLKTDELYLTFQGHKNSVISVCFSPDGKLFATGSGDLRARIWSIEDTA [chain 1 T167A], the dG was approximately -6.4 kcal/mol.

Regarding chain 1 ERTKESGQDWYAVYNEKMPKRMSIGLVHTLEHKSVVCCVRFSADGKYLATGCNRAAEIFDVQTGQKLATFEQENTNPETDLYIRSVAFSPDGKYLVTGAEDRQIRMWDIATGKVKHVFVGHEQDIYSLDYSRDGRYIVSGSGDHTARLWEAETGKCVLTLAIENGVTAVAFSPNNQFIAAGSLDQVIRVWSITGTLLKKLEGHRESVYSIAFSADGKYLASGSLDKTMRLWELKLDENAKTCSKASAISTYTGHSNAVLSVAISPNGKWAVSGSKDRSVQFWNLKTDELYLTFQGHKNSVISVCFSPDGKLFATGSGDLRARIWSIEDTA [chain 1 F257A], the dG is approximately -5.9 kcal/mol.

Regarding chain 1 ERTKESGQDWYAVYNEKMPKRMSIGLVHTLEHKSVVCCVRFSADGKYLATGCNRAAEIFDVQTGQKLATFEQENTNPETDLYIRSVAFSPDGKYLVTGAEDRQIRMWDIATGKVKHVFVGHEQDIYSLDYSRDGRYIVSGSGDHTARLWEAETGKCVLTLAIENGVTAVAFSPNNQFIAAGSLDQVIRVWSITGTLLKKLEGHRESVASIAFSADGKYLASGSLDKTMRLWELKLDENAKTCSKASAISTYTGHSNFVLSVAISPNGKWAVSGSKDRSVQFWNLKTDELYLTFQGHKNSVISVCFSPDGKLFATGSGDLRARIWSIEDTA [chain 1 Y208A], the dG is approximately -5.6 kcal/mol.

For chain 1 ERTKESGQDWYAVYNEKMPKRMSIGLVHTLEHKSVVCCVRFSADGKYLATGCNRAAEIFDVQTGQKLATFEQENTNPETDLYIRSVAFSPDGKYLVTGAEDRQIRMWDIATGKVKHVFVGHEQDIYSLDYSRDGRYIVSGSGDHTARLWEAETGKCVLTLAIENGVTAVAFSPNNQFIAAGSSDQVIRVWSITGTLLKKLEGHRESVYSIAFSADGKYLASGSLDKTMRLWELKLDENAKTCSKASAISTYTGHSNFVLSVAISPNGKWAVSGSKDRSVQFWNLKTDELYLTFQGHKNSVISVCFSPDGKLFATGSGDLRARIWSIEDTA [chain 1 L183S], the dG is approximately -6.8 kcal/mol.

Regarding chain 1 ERTKESGQDWYAVYNEKMPKRMSIGLVHTLEHKSVVCCVRFSADGKYLATGCNRAAEIFDVQTGQKLATFEQENTNPETDLYIRSVAFSPDGKYLVTGAEDRQIRMWDIATGKVKHVFVGHEQDIYSLDYSRDGRYIVSGSGDHTARLWEAETGKCVLTLAIENGVTAVAFSPNNQFIAAGSLDQVIRVWSITGTLLKKLEGHRESVYSIAFSADGKYLASGSLDKTMRLWELKLDENAKTCSKASAISTYTGHSNFVLSVAISPNGKWAVSGSKDRSVQFWNLKTDELYLTFQGHKNSVASVCFSPDGKLFATGSGDLRARIWSIEDTA [chain 1 I301A], the dG was approximately -5.4 kcal/mol.

In the case of chain 1 ERTKESGQDWYAVYNEKMPKRMSIGLVHTLEHKSVVCCVRFSADGKYLATGCNRAAEIFDVQTGQKLATFEQENTNPETDLYIRSVAFSPDGKYLVTGAEDRQIRMWDIATGKVKHVFVGHEQDIYSLDYSRDGRYIVSGSGDHTARLWEAETGKCVLTLAIENGVTAVAFSPNNQFIAAGSLDQVIRVWSITGTLLKKLEGHRESVYSIAFSADGKYLASGSADKTMRLWELKLDENAKTCSKASAISTYTGHSNFVLSVAISPNGKWAVSGSKDRSVQFWNLKTDELYLTFQGHKNSVISVCFSPDGKLFATGSGDLRARIWSIEDTA [chain 1 L224A], the dG was approximately -6 kcal/mol.

The values are drawn from article PMC3419727, “Identifying the Hotspots on the Top Faces of WD40-Repeat Proteins from Their Primary Sequences by β-Bulges and DHSW Tetrads” (PLoS ONE, 2012).
